Measurements as given in patent publication US20260274955A1 (JANUX THERAPEUTICS, published 2026).
No end group written: not given here.

These binders were tested against T1, Anti-CD28 Fab (SEQ ID NOs: 202, 203) (assay: phage binding ELISA, Fab on plate, CD28 as competitor).
T1 construct: biotinylated and captured on neutravidin coated plates in the phage ELISA
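Throughout, for Anti-CD28 Fab signal in the presence of CD28: coated wells pre-incubated with CD28 antigen or with blocking buffer only, then crude clonal phage supernatant added briefly, and retained phage read out via HRP-linked anti-M13 antibody.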

| Binder | Anti-CD28 Fab signal in the presence of CD28 |
| --- | --- |
| SCAAGATYTWPMCI [Phage-1054] | 0.07 |
| TCAAGAMWVWPTCL [Phage-1052] | 0.07 |
| TCSAGASYPWPVCL [Phage-1048] | 0.07 |
| SCAAGLSYPWPDCL [Phage-1055] | 0.07 |
| TCAAGAGWAWPFCF [Phage-1056] | 0.09 |
| WCAAGAMYPWPLCL [Phage-1049] | 0.06 |
| LCAAGANYPWPACL [Phage-1053] | 0.07 |
| TCSAGATYNWPWCF [Phage-1047] | 0.05 |
| SCAAGAHYVWPFCF [Phage-1046] | 0.08 |
| LCSAGAMYPWPLCY [Phage-1051] | 0.08 |

The binders below were run against T2, Ab-1 (assay: BLI (Octet), 200 nM peptide, 100 nM Ab-1;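 note: association and dissociation phases tracked in real time, with kinetics fitted to a 1:1 interaction model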).
T2 construct: also called anti-CD28 scFv harbored in Ab-1

| Binder | Octet signal | t1/2 |
| --- | --- | --- |
| ADWCPRDLWVHCFA (cysteine pairing not given here; also: biotinylated, site not given here) [Peptide-2] | 0.7 | 3.1 min |
| YDWCPRDLWVHCFA (cysteine pairing not given here; also: biotinylated, site not given here) [Peptide-18] | 0.849 | 2.9 min |
| NDWCPRDLWVHCFA (cysteine pairing not given here; also: biotinylated, site not given here) [Peptide-4] | 0.434 | 4 min |
| FDWCPRDLWVHCFA (cysteine pairing not given here; also: biotinylated, site not given here) [Peptide-13] | 1.01 | 3.3 min |
| IDWCPRDLWVHCFA (cysteine pairing not given here; also: biotinylated, site not given here) [Peptide-10] | 0.845 | 3.1 min |
| WDWCPRDLWVHCFA (cysteine pairing not given here; also: biotinylated, site not given here) [Peptide-17] | 1.15 | 4.1 min |
| LDWCPRDLWVHCFA (cysteine pairing not given here; also: biotinylated, site not given here) [Peptide-11] | 1.37 | 4.5 min |
| DDWCPRDLWVHCFA (cysteine pairing not given here; also: biotinylated, site not given here) [Peptide-5] | 0.461 | 4.2 min |
| PDWCPRDLWVHCFA (cysteine pairing not given here; also: biotinylated, site not given here) [Peptide-14] | 0.328 | 3.4 min |
| GDWCPRDLWVHCFA (cysteine pairing not given here; also: biotinylated, site not given here) [Peptide-8] | 0.479 | 3.9 min |
| VDWCPRDLWVHCFA (cysteine pairing not given here; also: biotinylated, site not given here) [Peptide-19] | 0.919 | 2.9 min |
| HDWCPRDLWVHCFA (cysteine pairing not given here; also: biotinylated, site not given here) [Peptide-9] | 0.737 | 3 min |
| SDWCPRDLWVHCFA (cysteine pairing not given here; also: biotinylated, site not given here) [Peptide-15] | 0.551 | 2.9 min |

These binders were tested against T2, Ab-1 (assay: competition ELISA, peptide titrated vs 1 nM Ab-1 binding plate-bound CD28).

| Binder | IC50 |
| --- | --- |
| ADWCPRDLWVHCFA (cysteine pairing not given here; also: biotinylated, site not given here) [Peptide-2] | 2000 nM |
| YDWCPRDLWVHCFA (cysteine pairing not given here; also: biotinylated, site not given here) [Peptide-18] | 3250 nM |
| NDWCPRDLWVHCFA (cysteine pairing not given here; also: biotinylated, site not given here) [Peptide-4] | 5030 nM |
| FDWCPRDLWVHCFA (cysteine pairing not given here; also: biotinylated, site not given here) [Peptide-13] | 780 nM |
| IDWCPRDLWVHCFA (cysteine pairing not given here; also: biotinylated, site not given here) [Peptide-10] | 2660 nM |
| WDWCPRDLWVHCFA (cysteine pairing not given here; also: biotinylated, site not given here) [Peptide-17] | 2800 nM |
| LDWCPRDLWVHCFA (cysteine pairing not given here; also: biotinylated, site not given here) [Peptide-11] | 630 nM |
| DDWCPRDLWVHCFA (cysteine pairing not given here; also: biotinylated, site not given here) [Peptide-5] | 4460 nM |
| PDWCPRDLWVHCFA (cysteine pairing not given here; also: biotinylated, site not given here) [Peptide-14] | 8340 nM |
| GDWCPRDLWVHCFA (cysteine pairing not given here; also: biotinylated, site not given here) [Peptide-8] | 7060 nM |
| VDWCPRDLWVHCFA (cysteine pairing not given here; also: biotinylated, site not given here) [Peptide-19] | 4420 nM |
| HDWCPRDLWVHCFA (cysteine pairing not given here; also: biotinylated, site not given here) [Peptide-9] | 2180 nM |
| SDWCPRDLWVHCFA (cysteine pairing not given here; also: biotinylated, site not given here) [Peptide-15] | 2630 nM |

Each binder was assayed against T2, Ab-1 (assay: binding ELISA, peptide captured, Ab-1 titrated).

| Binder | EC50 |
| --- | --- |
| ADWCPRDLWVHCFA (cysteine pairing not given here; also: biotinylated, site not given here) [Peptide-2] | 75.9 nM |
| YDWCPRDLWVHCFA (cysteine pairing not given here; also: biotinylated, site not given here) [Peptide-18] | 32.2 nM |
| NDWCPRDLWVHCFA (cysteine pairing not given here; also: biotinylated, site not given here) [Peptide-4] | 84.3 nM |
| FDWCPRDLWVHCFA (cysteine pairing not given here; also: biotinylated, site not given here) [Peptide-13] | 39.3 nM |
| IDWCPRDLWVHCFA (cysteine pairing not given here; also: biotinylated, site not given here) [Peptide-10] | 44.9 nM |
| WDWCPRDLWVHCFA (cysteine pairing not given here; also: biotinylated, site not given here) [Peptide-17] | 21.7 nM |
| LDWCPRDLWVHCFA (cysteine pairing not given here; also: biotinylated, site not given here) [Peptide-11] | 23.4 nM |
| DDWCPRDLWVHCFA (cysteine pairing not given here; also: biotinylated, site not given here) [Peptide-5] | 86.8 nM |
| PDWCPRDLWVHCFA (cysteine pairing not given here; also: biotinylated, site not given here) [Peptide-14] | 102 nM |
| GDWCPRDLWVHCFA (cysteine pairing not given here; also: biotinylated, site not given here) [Peptide-8] | 73.9 nM |
| VDWCPRDLWVHCFA (cysteine pairing not given here; also: biotinylated, site not given here) [Peptide-19] | 32.5 nM |
| HDWCPRDLWVHCFA (cysteine pairing not given here; also: biotinylated, site not given here) [Peptide-9] | 45.4 nM |
| SDWCPRDLWVHCFA (cysteine pairing not given here; also: biotinylated, site not given here) [Peptide-15] | 66.5 nM |

The binders below were run against T1, Anti-CD28 Fab (SEQ ID NOs: 202, 203) (assay: phage binding ELISA, Fab on plate;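 note: clonal phage supernatant ELISA, wells preincubated with CD28 antigen or blocking buffer only, then bound phage detected using HRP-linked anti-M13 antibody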).

| Binder | Anti-CD28 Fab (SEQ ID NOs: 202, 203) signal |
| --- | --- |
| SCAAGATYTWPMCI [Phage-1054] | 1.66 |
| TCAAGAMWVWPTCL [Phage-1052] | 1.66 |
| TCSAGASYPWPVCL [Phage-1048] | 1.67 |
| SCAAGLSYPWPDCL [Phage-1055] | 1.65 |
| TCAAGAGWAWPFCF [Phage-1056] | 1.65 |
| WCAAGAMYPWPLCL [Phage-1049] | 1.67 |
| LCAAGANYPWPACL [Phage-1053] | 1.66 |
| TCSAGATYNWPWCF [Phage-1047] | 1.68 |
| SCAAGAHYVWPFCF [Phage-1046] | 1.68 |
| LCSAGAMYPWPLCY [Phage-1051] | 1.66 |

Each binder was assayed against anti-CD28 Fab (SEQ ID NOs: 202, 203) (assay: phage binding ELISA; biotinylated anti-CD28 Fab captured on neutravidin plate, clonal phage supernatant, anti-M13-HRP detection;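 note: before crude clonal phage supernatants were added, wells were preincubated with CD28 antigen in blocking buffer or with blocking buffer only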).

| Binder | Anti-CD28 Fab (SEQ ID NOs: 202, 203) signal |
| --- | --- |
| TCAAGATYEWPSCI [Phage-1234] | 0.86 |
| LCEAGFNYDWPRCL [Phage-1236] | 0.85 |
| TCAAGATWVWPTCF [Phage-1228] | 0.92 |
| QCAAGFSYTWPECY [Phage-1231] | 0.9 |
| SCAAGATYKWPACF [Phage-1240] | 0.8 |
| TCSAGAHYPWPMCL [Phage-1227] | 0.93 |
| TCAAGAKYVWPLCF [Phage-1235] | 0.85 |
| SCSAGAMWLWPECF [Phage-1241] | 0.8 |
| TCSAGATYKWPTCL [Phage-1222] | 0.97 |
| VCAAGAAYPWPACL [Phage-1226] | 0.93 |
| WCAAFFHYPWPQCF [Phage-1232] | 0.87 |
| SCAAGAHWSWPACL [Phage-1223] | 0.97 |
| SCAAGASYSWPLCF [Phage-1225] | 0.95 |
| WCSAVFSYQWPPCF [Phage-1242] | 0.78 |
| TCSAGAMYNWPECF [Phage-1229] | 0.92 |
| TCAAGASWDWPFCF [Phage-1237] | 0.82 |
| LCAAVFAYTWPMCF [Phage-1220] | 0.98 |
| ECGWEPGQHWRVCF [Phage-1238] | 0.82 |
| SCAAGATYEWPTCL [Phage-1239] | 0.81 |
| RCKAGVPYKWPMCL [Phage-1233] | 0.87 |
| PCAAGAHYVWPVCF [Phage-1221] | 0.97 |
| TCSAGAMYSWPLCI [Phage-1230] | 0.91 |
| MCAAGAMYNWPLCL [Phage-1224] | 0.95 |
